Positions count from the first letter of the chain named.
B1: 1-32 (antibody, V domains shown)
VH: QVKLVESGGGVVQPGRSLRLSCAGSGFAFDNYAMHWVRQAPGKGLEWVAVISLEGRNKYYAGPAKGRFSISRDNSRNTVHLQMNSLRPEDTAVYFCARDMRYYYDSNGHYRNRYGMDVWGQGTTVIVSS
VL: DIQMTQSPSSLSASVGDSVTITCQASQDINQFVSWYQQKPGKPPKLLIYDASNLESGVPSRFSGSGSGTHFTFTISSLQPDDIATYYCQQYENLFTFGPGTKVDIK
B2: 3-7 (antibody, V domains shown)
VH: QVQLVQSGAEVKKPGASVKVSCKTSGYTFNTYAISWVRQAPGQGLEWVGWINTYSGSTKYAQKVQGRVTMTTDTSTSTAYMELRGLRSDDTAVYYCARDGYNWGFLDFWGQGSLVTVSS
VL: DIQMTQSPSSLSASVGDRVTITCRASQGISNYLAWYQQKPGKLPKLLIYAASTLQSGVPSRFSGSGSGTDFTLTISSLQPEDVASYYCQKYNSAPLTFGPGTKVDIK
B3: 1-150 (antibody, V domains shown)
VH: QVQLVESGGGLVKPGGSLRLSCAASGFSFSAYYMSWIRQAPGKGLEWISYISSSGNTIYYTDSVKGRFTIARDNAKNSLYLQMNSLRAEDTGLYYCARDSYSKLADIEATEAFDVWGQGTMVAVSS
VL: SYELTQPPSVSVAPGKTARITCGGNNIGSKSVHWYQQKPGQAPVMVIYYDSDRPSGIPERFSGSNSGNTATLTISRVEAGDEADYYCQVWDSGSDRVVFGGGTKLTVL
B4: 2-25 (antibody, V domains shown)
VH: QVQLVESGAEVKKPGALVKVSCKASGYTFTNYAIHWVRQASGQRLEWMGWINAGRGNTKYSQKFQGRVTITRDTSASTAYMELSSLRSEDAAVYFCARDESTGDYYYYMDVWGKGTTVTVSS
VL: SYELTQPPSVSVSPGQTASITCSGDRLDDKYASWYQQKAGQSPVLVIYQDNKRPSGIPERFSGSNSGNTATLTISGTQAMDEADYYCQAWDSDTYVFGTGTKVTVL
B5: 1-85 (antibody, V domains shown)
VH: QVHLVESGGGLVKPGRSLRLSCAASGFTFSDYYMAWIRQVPGKGLEWVSFISSSGRTIYYADSVKGRFTISRDNAKDSLYLQMHSLRAEDTAVYYCARDSYSKLVDIEAIEAFDIWGRGTMVTVSS
VL: SYELAQPPSVSVAPGKTATIACGGDNIGGKSVHWYLQKAGQAPVLVISYDSDRPSGIPERFSGSNSGNTATLTISRVEAGDEADYFCQVWDRHGDHVVFGGGTKLTVL
B6: 1-125 (antibody, V domains shown)
VH: QVQLVESGGGLVKPGGSLRLSCAPAGFNFKDYYMTWIRQAPGKGLEWVSFISSSGQTIYYADSVKGRFTISRDNARNSLYLQMNSLRAEDTAVYYCARDSYSKLVDIVAIEAFDLWGQGTLVSVSS
VL: SYELTQPPSVSVAPGKMARITCGGDNIGSKSVHWYQQRPGQAPVLVIRFDTDRPSRIPERFSGSNSGNTATLAISRVEAGDEADYYCQVWDSSSARLVFGGGTKLTVL
B7: 1-15 (antibody, V domains shown)
VH: QVQLVASGGGLVKPGGSLRLSCAASEFTFSDYYMTWIRQAPGKGLEWVSYISSSGTTIYYADSVKGRFTVSRDNAKNSLFLQMNSLRAEDTALYYCARDSYSKLVDIEAIEAFDIWGQGTMVTVSS
VL: SYELTQPPSVSVGPGRTARITCGANNIGSKSVHWYQQRPGQAPVLVISFDTDRPSGIPERFSGSNSGNTATLTISRVEAGDEADYFCQVWDRTSDHVVFGGGTKLTVL
B8: 1-64 (antibody, V domains shown)
VH: B7 VH with E26G
VL: B7 VL
B9: 1-175 (antibody, V domains shown)
VH: QVHLVESGGGLVKPGGSLRLSCAASGFTFSDYYMAWIRRAPGKGLEWISFISGSGRTLYHAESVKGRFTVSRDNAKDSLYLHMHSLRDADTAVYYCARDSYSKLVEIEAIEAFDVWGRGTVVTVSS
VL: B5 VL with T17P, T19R, I47M, A83G, H93Q, G94T

target: recombinant pentameric gH complex (Towne strain) (human cytomegalovirus, Towne strain) (UniProt P17176); experiment: BLI competition on His-pentamer; competitor (antibody 2): 1-150
Sequence (P17176 30-715, one chain of several): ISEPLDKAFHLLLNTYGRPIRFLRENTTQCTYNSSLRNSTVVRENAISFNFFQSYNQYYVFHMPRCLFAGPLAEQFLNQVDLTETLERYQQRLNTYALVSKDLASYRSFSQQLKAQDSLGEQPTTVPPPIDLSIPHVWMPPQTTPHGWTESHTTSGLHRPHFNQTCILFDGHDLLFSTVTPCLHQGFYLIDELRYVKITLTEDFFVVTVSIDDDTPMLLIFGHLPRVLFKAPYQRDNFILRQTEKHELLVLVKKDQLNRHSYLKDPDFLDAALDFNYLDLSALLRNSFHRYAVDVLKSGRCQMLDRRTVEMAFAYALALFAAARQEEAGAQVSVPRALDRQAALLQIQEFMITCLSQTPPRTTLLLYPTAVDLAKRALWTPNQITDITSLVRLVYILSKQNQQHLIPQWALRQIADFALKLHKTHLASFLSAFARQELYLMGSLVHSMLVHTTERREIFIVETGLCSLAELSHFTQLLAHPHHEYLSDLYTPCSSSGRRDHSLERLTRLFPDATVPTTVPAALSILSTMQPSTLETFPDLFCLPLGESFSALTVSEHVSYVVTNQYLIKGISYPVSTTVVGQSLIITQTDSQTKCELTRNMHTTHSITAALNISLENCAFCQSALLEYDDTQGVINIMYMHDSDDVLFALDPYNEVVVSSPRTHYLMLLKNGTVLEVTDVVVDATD

In order of rising Pair-wise inhibition (%):
1. B4  -17%
2. B2  -6%
3. B1  4%
4. B3  104%
5. B5  117%

target: pentameric gH complex on infectious CMV (neutralization assays) (human cytomegalovirus); experiment: cell-based or functional assay

In order of rising EC50 Neutralizing:
1. B4  0.09 ng/mL
2. B6  0.9 ng/mL
3. B7  0.9 ng/mL
4. B5  0.9 ng/mL
5. B3  1 ng/mL
6. B8  1 ng/mL
7. B9  1 ng/mL
8. B1  20 ng/mL
9. B2  80 ng/mL

In order of rising IC50 in ARPE-19:
1. B4  0.08 ng/mL
2. B5  0.13 ng/mL
3. B3  0.31 ng/mL
4. B1  0.82 ng/mL
5. B2  9.5 ng/mL

In order of falling IC50 in MRC-5:
1. B3  260 ng/mL
2. B2  19 ng/mL

target: CMV virions; experiment: virion ELISA

In order of rising EC50:
1. B2  70 ng/mL
2. B6  1400 ng/mL

target: recombinant pentameric gH complex (Towne strain) (human cytomegalovirus, Towne strain) (UniProt P17176); experiment: BLI competition on His-pentamer; competitor (antibody 2): 3-16

In order of rising Pair-wise inhibition (%):
1. B3  2%
2. B4  6%
3. B1  10%
4. B5  37%
5. B2  97%

target: recombinant pentameric gH complex (Towne strain) (human cytomegalovirus, Towne strain) (UniProt P17176); experiment: BLI competition on His-pentamer; competitor (antibody 2): 324.4

In order of falling Pair-wise inhibition (%):
1. B5  17%
2. B2  14%
3. B1  6%
4. B4  -4%
5. B3  -12%

target: recombinant pentameric gH complex (Towne strain) (human cytomegalovirus, Towne strain) (UniProt P17176); experiment: BLI competition on His-pentamer; competitor (antibody 2): 270.7

In order of falling Pair-wise inhibition (%):
1. B1  97%
2. B5  27%
3. B2  16%
4. B4  -10%
5. B3  -29%

target: recombinant pentameric gH complex (Towne strain) (human cytomegalovirus, Towne strain) (UniProt P17176); experiment: BLI competition on His-pentamer; competitor (antibody 2): 1-103

In order of rising Pair-wise inhibition (%):
1. B4  -4%
2. B1  15%
3. B3  26%
4. B2  27%
5. B5  27%

target: recombinant pentameric gH complex (Towne strain) (human cytomegalovirus, Towne strain) (UniProt P17176); experiment: BLI competition on His-pentamer; competitor (antibody 2): 276.1

In order of rising Pair-wise inhibition (%):
1. B4  -25%
2. B3  -12%
3. B1  -11%
4. B5  -2%
5. B2  12%

target: recombinant pentameric gH complex (Towne strain) (human cytomegalovirus, Towne strain) (UniProt P17176); experiment: BLI competition on His-pentamer; competitor (antibody 2): 124.4

In order of rising Pair-wise inhibition (%):
1. B3  -22%
2. B4  1%
3. B1  7%
4. B5  24%
5. B2  35%

target: recombinant pentameric gH complex (Towne strain) (human cytomegalovirus, Towne strain) (UniProt P17176); experiment: BLI competition on His-pentamer; competitor (antibody 2): 70.7

In order of rising Pair-wise inhibition (%):
1. B3  -32%
2. B4  29%
3. B5  36%
4. B2  38%
5. B1  87%

target: recombinant pentameric gH complex (Towne strain) (human cytomegalovirus, Towne strain) (UniProt P17176); experiment: BLI competition on His-pentamer; competitor (antibody 2): 57.4

In order of falling Pair-wise inhibition (%):
1. B1  57%
2. B5  29%
3. B2  20%
4. B4  15%
5. B3  -19%

target: recombinant pentameric gH complex (Towne strain) (human cytomegalovirus, Towne strain) (UniProt P17176); experiment: BLI competition on His-pentamer; competitor (antibody 2): 1-85

In order of falling Pair-wise inhibition (%):
1. B5  87%
2. B3  61%
3. B2  35%
4. B1  18%
5. B4  7%

target: recombinant pentameric gH complex (Towne strain) (human cytomegalovirus, Towne strain) (UniProt P17176); experiment: BLI competition on His-pentamer; competitor (antibody 2): 2-25

In order of falling Pair-wise inhibition (%):
1. B4  104%
2. B2  44%
3. B5  -4%
4. B3  -22%
5. B1  -33%

target: recombinant pentameric gH complex (Towne strain) (human cytomegalovirus, Towne strain) (UniProt P17176); experiment: BLI competition on His-pentamer; competitor (antibody 2): 2-18

In order of rising Pair-wise inhibition (%):
1. B3  -10%
2. B1  -1%
3. B5  14%
4. B2  51%
5. B4  87%

target: recombinant pentameric gH complex (Towne strain) (human cytomegalovirus, Towne strain) (UniProt P17176); experiment: BLI competition on His-pentamer; competitor (antibody 2): 3-7

In order of falling Pair-wise inhibition (%):
1. B2  91%
2. B5  27%
3. B4  9%
4. B1  8%
5. B3  0%

target: recombinant pentameric gH complex (Towne strain) (human cytomegalovirus, Towne strain) (UniProt P17176); experiment: BLI competition on His-pentamer; competitor (antibody 2): 3-15

In order of falling Pair-wise inhibition (%):
1. B2  102%
2. B5  33%
3. B4  10%
4. B1  7%
5. B3  6%

target: recombinant pentameric gH complex (Towne strain) (human cytomegalovirus, Towne strain) (UniProt P17176); experiment: BLI competition on His-pentamer; competitor (antibody 2): 316.2

In order of falling Pair-wise inhibition (%):
1. B1  78%
2. B5  29%
3. B2  21%
4. B4  -1%
5. B3  -22%

target: recombinant pentameric gH complex (Towne strain) (human cytomegalovirus, Towne strain) (UniProt P17176); experiment: BLI competition on His-pentamer; competitor (antibody 2): 1-32

In order of rising Pair-wise inhibition (%):
1. B3  -11%
2. B4  2%
3. B2  10%
4. B5  16%
5. B1  91%
